Laboratory results as given in publication PMC12292289, “Identification of a Novel Antibacterial Function of Mammalian Calreticulin” (Biomolecules, 2025).

Experiments:
[1] = molecular target: recombinant goat calreticulin (Capra hircus (goat)); assay: SEC; SEC-HPLC of the purified recombinant protein; retention time compared with that of standards (Figure S1)
[2] = molecular target: the molecule itself; assay: as above

Molecule | stoichiometry N [1] | stoichiometry N [2]
recombinant goat calreticulin (natural protein) | 2 | –
recombinant human calreticulin (natural protein, UniProt P27797 18-417, looked up, calreticulin, human; bought recombinant protein (Sino Biological, P27797); P27797 is printed where the reagent list gives catalogue numbers; also called recombinant human calreticulin expressed in HEK293 cells; source: bought: Sino Biological; expressed in HEK293 cells) EPAVYFKEQFLDGDGWTSRWIESKHKSDFGKFVLSSGKFYGDEEKDKGLQTSQDARFYALSASFEPFSNKGQTLVVQFTVKHEQNIDCGGGYVKLFPNSLDQTDMHGDSEYNIMFGPDICGPGTKKVHVIFNYKGKNVLINKDIRCKDDEFTHLYTLIVRPDNTYEVKIDNSQVESGSLEDDWDFLPPKKIKDPDASKPEDWDERAKIDDPTDSKPEDWDKPEHIPDPDAKKPEDWDEEMDGEWEPPVIQNPEYKGEWKPRQIDNPDYKGTWIHPEIDNPEYSPDPSIYAYDNFGVLGLDLWQVKSGTIFDNFLITNDEAYAEEFGNETWGVTKAAEKQMKDKQDEEQRLKEEEEDKKRKEEEEAEDKEDDEDKDEDEEDEEDKEEDEEEDVPGQAKDEL | – | 2
